Measurements: the supplement of paper PMC10567573
± gives the standard deviation.

Test: protein stability index of a GFP-peptide fusion (GPS, HEK-293T) (PSI 1-6); higher = more stable
Conditions: c terminus: a fixed tail appended
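Also: 24-mer peptide tiles fused after GFP, lentivirally expressed, FACS-sorted into six equal bins by GFP/DsRed ratio, decoded by Illumina sequencing, PSI is the read-weighted mean bin number.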

Sequence | protein stability index (treatment: DMSO) | protein stability index (treatment: MLN4924 1 uM, 8 h)
VLRFLPAFVRMKQLIEEGYVGEPL [GFOD1] | 2.2 ± 0.25 | 2.17 ± 0.13
PEKIGTRFLLYTNENPNNFQILLL [PNLIPRP1] | 2.26 ± 0.46 | 2.48 ± 0.46
HPNSRKSSAGGAKAGQPESRALAL [ZNF8] | 4.67 ± 0.36 | 4.77 ± 0.16
LSLESSPDAPDHTSETSHSPLYAD [PLEKHN1] | 5.47 ± 0.16 | 5.38 ± 0.24
LHPRPDWEHSAPQRLPRSAPPGSL [PCDHGC5] | 4.78 ± 0.19 | 4.75 ± 0.17
YILDNETNFVVQVSVFIGVLIDLW [CLPTM1] | 2.74 ± 0.77 | 2.59 ± 0.7
QTVTVEEAAGGESALAPSVFKQAK [MAP2] | 5.21 ± 0.32 | 5.38 ± 0.45
PAGKTPVPAGEEEGELGEYRQKLL [VPS39] | 5.29 ± 0.32 | 5.45 ± 0.2
MMEKILGPIPSHMIHRTRKQKYFY [CLK3] | 2.27 ± 0.84 | 2.12 ± 0.3
QLIDNILEESDIDRDGTINLSEFQ [CIB1] | 3.69 ± 0.35 | 3.89 ± 0.26
FPPFFDDNPFGIYQKILAGKIDFP [PRKX] | 2.28 ± 0.067 | 2.27 ± 0.62
PNPGFSMLDFLSERPWIKRMIFKL [APMAP] | 2.05 ± 0.2 | 2.36 ± 0.66
YLRDSSPAPCADGPAGGLADLSSG [PWWP2B] | 4.78 ± 0.2 | 4.8 ± 0.11
SSSYAGQFRVIGPRHPIRALVGDE [MOG] | 3.54 ± 0.31 | 3.48 ± 0.32
LKPAMTQAQDEVEQERRLSEARLS [FCHSD1] | 5.25 ± 0.18 | 5.19 ± 0.25
PGSSSGPVLGSSSGAGHGSGSGSG [SPAG8] | 4.87 ± 0.29 | 5.14 ± 0.18
TGVFITLSIVLERMRYEGVVDIFQ [PTPRD] |  | 3.66 ± 0.2
TAPEEVPKVSDQALVSAHSEWQRK [DMRTC1] | 4.88 ± 0.61 | 5.07 ± 0.39
AFADRDQSERQRHESQQLATETQA [TEKT4] | 5.11 ± 0.16 | 5.36 ± 0.31
LGDRDRSRAALVCRKWNQMMYSAE [FBXO39] | 2.72 ± 0.21 | 2.79 ± 0.17
ILQLEECCTHNNSATLSWKQPPLS [TRIM9] | 2.67 ± 0.42 | 2.78 ± 0.23
SEEYQQAQHKFLVAVESMEPNNIV [TCF25] | 4.26 ± 0.22 | 4.29 ± 0.15
AFGAPIGGTLFSLEEGSSFWNQGL [CLCN6] | 2.47 ± 0.27 | 2.47 ± 0.35

Sequence | protein stability index (treatment: DMSO) | protein stability index (treatment: MLN4924 1 uM, 8 h)
KTESSGIETEPTVHHLPLSTEKVV [EPB41L3] | 5.21 ± 0.14 | 5 ± 0.25
GSAAPGSPLAADPACLGQPHTPGK [FOXJ1] | 5.25 ± 0.29 | 5.4 ± 0.13
LKKEHPGARDGIRYLEAEFKKGNR [SMG5] | 4.35 ± 0.6 | 4.29 ± 0.24
GVVHPSNEVLSSDILPRWAIIGWL [INTS3] | 2.13 ± 0.41 | 2.18 ± 0.45
SAWSNIQEAPLQDDSCLNNDIPHS [FAN1] | 4.98 ± 0.2 | 5.07 ± 0.067
LQDVIMQVADVPEKPRVPAFACQV [ZNF511] | 2.37 ± 0.28 | 2.69 ± 0.21
ALFKANRLEKAVAAAYTFLQRNPK [P3H4] | 2.48 ± 0.27 | 2.12 ± 0.53
VTSTSQSPHSPDSSQSSLAQEEEE [DDIT3] | 5.53 ± 0.1 | 5.64 ± 0.12
ANYIDGYRKQNAYIATQGSLPETF [PTPRD] | 2.94 ± 0.25 | 3.13 ± 0.45
HSCVQIKNDVFICGGYNGEVILGD [KLHDC10] | 1.94 ± 0.27 | 2.62 ± 0.42
EEAPELDEAELDYLMDVLVGTQAL [SERTAD1] | 4.05 ± 0.25 | 4.22 ± 0.16
RPIIASISSGVVSIWAQNQVENWS [RBBP5] | 2.22 ± 0.34 | 2.26 ± 0.42
ITTLRVPVLRPMDLMVEATPRRVF [PPP2R2B] | 2.52 ± 0.17 | 2.71 ± 0.27
RGLVGVGEASYSTIAPTLIADLFV [SPNS1] | 2.29 ± 0.62 | 2.13 ± 0.26
KIRDWYQRQAPGPARDYSQYYRTI [KRT17] | 2.19 ± 0.37 | 2.42 ± 0.31
DITQEEYGEFYKSLTNDWEDHLAV [HSP90AB1] | 3.85 ± 0.17 | 4.01 ± 0.22
LKVGGILVMPIEDQLTQIMRTGQN [PCMTD1] | 2.66 ± 0.12 | 2.24 ± 0.22
VSLDISPDLPFQIKPSENHYSLLT [PCDHGC5] | 2.22 ± 0.31 | 2.46 ± 0.17
VLDLRKNSHQDFWTVWSGNRASLY [PRAME] | 2.19 ± 0.3 | 2.3 ± 0.19
MQNSNECKRNFVAVYDGSSSVEDL [NETO1] | 4.59 ± 0.066 | 4.68 ± 0.22
KGDKCKFSHDLTLERKCEKRSVYI [ZC3H15] | 2.74 ± 0.22 | 2.63 ± 0.067
GQFVFARDAKAAMAGRLMIRKLVA [AASDHPPT] | 2.08 ± 0.43 | 2.02 ± 0.46
